From publication PMC5800781 come the findings set out here.

The target in one data set is BRCA1;BARD1 (human?;human?, UniProt P38398;Q99728 1-1863;1-777, |). Briefly: EMSA. In general terms: A gel shift assay detects complexes by their altered migration in electrophoresis.
Another data set concerns the target RAD51 (human, UniProt Q06609 1-339). Kind of data set: single-molecule DNA curtain.
The next data set has as its target RAD51;BRCA1;BARD1 (human;human?;human?, UniProt Q06609;P38398;Q99728 1-339;1-1863;1-777, ||). Briefly: single-molecule DNA curtain.
A further data set concerns the target BARD1 (UniProt Q99728 1-777). Briefly: Southwestern.
The next data set has as its target BRCA1 (UniProt P38398 1-1863). Briefly: Southwestern.
The next data set addresses BARD1 124-270 (UniProt Q99728 124-270). Kind of data set: EMSA.

BARD1 124-270, sequence (Q99728 124-270): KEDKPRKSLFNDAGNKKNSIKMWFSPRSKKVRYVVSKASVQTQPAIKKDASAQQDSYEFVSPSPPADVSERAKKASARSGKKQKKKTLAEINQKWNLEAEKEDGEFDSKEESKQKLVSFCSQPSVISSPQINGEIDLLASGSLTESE
RAD51, sequence (Q06609 whole entry): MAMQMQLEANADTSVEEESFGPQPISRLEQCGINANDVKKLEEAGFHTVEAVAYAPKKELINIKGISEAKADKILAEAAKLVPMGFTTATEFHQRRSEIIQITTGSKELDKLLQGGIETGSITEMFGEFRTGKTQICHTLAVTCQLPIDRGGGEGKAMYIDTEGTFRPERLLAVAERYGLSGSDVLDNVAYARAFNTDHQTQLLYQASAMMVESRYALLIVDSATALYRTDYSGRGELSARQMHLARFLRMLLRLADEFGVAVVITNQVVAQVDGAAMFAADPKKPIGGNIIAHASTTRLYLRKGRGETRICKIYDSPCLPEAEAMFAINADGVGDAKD
BARD1, sequence (Q99728 whole entry): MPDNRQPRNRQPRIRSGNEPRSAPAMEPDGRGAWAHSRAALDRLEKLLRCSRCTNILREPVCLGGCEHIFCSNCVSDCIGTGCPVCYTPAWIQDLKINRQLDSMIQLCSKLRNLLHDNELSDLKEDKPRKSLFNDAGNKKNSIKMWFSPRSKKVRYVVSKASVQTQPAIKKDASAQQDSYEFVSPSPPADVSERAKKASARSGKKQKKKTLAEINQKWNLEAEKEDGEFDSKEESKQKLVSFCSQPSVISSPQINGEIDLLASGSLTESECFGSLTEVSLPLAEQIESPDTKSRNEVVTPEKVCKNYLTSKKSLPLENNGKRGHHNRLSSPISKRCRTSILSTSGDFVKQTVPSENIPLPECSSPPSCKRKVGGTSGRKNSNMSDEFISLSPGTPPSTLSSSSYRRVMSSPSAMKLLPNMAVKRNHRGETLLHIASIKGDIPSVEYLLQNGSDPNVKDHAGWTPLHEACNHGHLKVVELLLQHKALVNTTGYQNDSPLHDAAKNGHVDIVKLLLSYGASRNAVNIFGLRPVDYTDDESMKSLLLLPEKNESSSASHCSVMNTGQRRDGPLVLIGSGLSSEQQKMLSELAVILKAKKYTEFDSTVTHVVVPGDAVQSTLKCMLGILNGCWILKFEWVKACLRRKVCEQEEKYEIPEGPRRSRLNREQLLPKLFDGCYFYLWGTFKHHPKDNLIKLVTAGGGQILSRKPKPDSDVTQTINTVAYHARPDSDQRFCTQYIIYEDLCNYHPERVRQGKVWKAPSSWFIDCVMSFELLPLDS

B1: replication fork (RF) (mixed)
DNA 1: GACGCTGCCGAATTCTACCAGTGCCTTGCTAGGACATCTTTGCCCACCTGCAGGTTCACCC
DNA 2: GGACATCTTTGCCCACCTGCAGGTTCACCC
DNA 3: TGGGTGAACCTGCAGGTGGGCAAAGATGTCC
DNA 4: GGGTGAACCTGCAGGTGGGCAAAGATGTCCCAGCAAGGCACTGGTAGAATTCGGCAGCGTC
Take B1: in the data set with BRCA1;BARD1, the binding result is on record as “binds”.

B2: Atto565 dsDNA 70 bp with 9-nt homology (dsDNA)
DNA 1: CCGGAGGCCTTAGGCCTTAGGCCTTAGGCCTTCAGCTGTTAGCCTTAGCTAGCTAGCTAGCTAGCTAGCT
DNA 2: AGCTAGCTAGCTAGCTAGCTAGCTAAGGCTAACAGCTGAAGGCCTAAGGCCTAAGGCCTAAGGCCTCCGG
In the case of B2, the binding result with RAD51 and with RAD51;BRCA1;BARD1 was “binds” throughout.

B3: D-loop (mixed)
DNA 1: CATTGCATATTTAAAACATGTTGGAAGGCTCGATGCATGCTGATAGCCTACTAGTGCTGCTGGCTTTCAAATGACCTCTTATCAAGTGAC
DNA 2: GTCACTTGATAAGAGGTCATTTGAATTCATGGCTTAGAGCTTAATTGCTGAATCTGGTGCTGGGATCCAACATGTTTTAAATATGCAATG
DNA 3: CTGCTACGATGCTAGTCGTAGCTCGGCAGTCGTAGCAGGTTCCCAGCACCAGATTCAGCAATTAAGCTCTAAGCCATGAA
As for B3, the binding result in the data set with BARD1, with BRCA1, with BARD1 124-270 and in the data set with BRCA1;BARD1 was “binds” each time.

B4: DNA bubble (mixed)
DNA 1: B3 DNA 1
DNA 2: B3 DNA 2
For B4, the binding result with BARD1 124-270 and with BRCA1;BARD1 was “binds” in each case.
